Test results: paper PMC10962938 (Proceedings of the National Academy of Sciences of the …, 2024)
Read-outs that look alike come from different tables or passages of the source.

Columns and labels:
[1] = molecular target: Δ131Δ with a K16C mutation (model client); assay: fluorescence polarisation
[2] = molecular target: Δ131Δ with a K16C mutation (model client); assay: fluorescence polarisation; remark: listed apart in the source
[3] = molecular target: Grp94 full-length (FL) wild type (human, UniProt P14625 22-803, biotin label (Grp94 NH3-bio), in the streptavidin pull-down); assay: pull-down
Grp94 full-length (FL) wild type (human, UniProt P14625 22-803, biotin label (Grp94 NH3-bio), in the streptavidin pull-down), sequence (P14625 22-803): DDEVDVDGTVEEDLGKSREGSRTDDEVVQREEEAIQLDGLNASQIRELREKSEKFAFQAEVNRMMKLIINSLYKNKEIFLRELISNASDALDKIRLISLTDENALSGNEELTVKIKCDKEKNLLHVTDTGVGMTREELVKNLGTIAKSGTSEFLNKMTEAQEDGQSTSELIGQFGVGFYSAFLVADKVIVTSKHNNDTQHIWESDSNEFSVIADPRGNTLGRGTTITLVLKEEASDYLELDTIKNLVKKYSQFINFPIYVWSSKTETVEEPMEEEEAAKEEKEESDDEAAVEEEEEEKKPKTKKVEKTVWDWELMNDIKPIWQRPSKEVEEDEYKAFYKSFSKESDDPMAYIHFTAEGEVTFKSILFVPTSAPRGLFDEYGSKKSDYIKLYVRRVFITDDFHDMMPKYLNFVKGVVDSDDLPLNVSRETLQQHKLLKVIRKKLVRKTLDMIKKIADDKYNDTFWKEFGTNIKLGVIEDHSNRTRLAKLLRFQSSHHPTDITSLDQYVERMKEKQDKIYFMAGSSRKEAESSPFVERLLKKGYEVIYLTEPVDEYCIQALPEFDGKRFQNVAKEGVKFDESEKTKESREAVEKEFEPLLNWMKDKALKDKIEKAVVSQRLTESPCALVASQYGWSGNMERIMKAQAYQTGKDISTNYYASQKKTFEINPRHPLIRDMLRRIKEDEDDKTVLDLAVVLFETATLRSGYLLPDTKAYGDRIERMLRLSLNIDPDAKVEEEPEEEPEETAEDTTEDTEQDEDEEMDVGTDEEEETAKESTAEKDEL

Grp94 full-length (FL) wild type (from UniProt P14625 22-803) (natural protein), sequence (P14625 22-803): as above
Grp94 Δ72 (pre-N domain truncation, aa 73-803), sequence (P14625 73-803, stated change not applied): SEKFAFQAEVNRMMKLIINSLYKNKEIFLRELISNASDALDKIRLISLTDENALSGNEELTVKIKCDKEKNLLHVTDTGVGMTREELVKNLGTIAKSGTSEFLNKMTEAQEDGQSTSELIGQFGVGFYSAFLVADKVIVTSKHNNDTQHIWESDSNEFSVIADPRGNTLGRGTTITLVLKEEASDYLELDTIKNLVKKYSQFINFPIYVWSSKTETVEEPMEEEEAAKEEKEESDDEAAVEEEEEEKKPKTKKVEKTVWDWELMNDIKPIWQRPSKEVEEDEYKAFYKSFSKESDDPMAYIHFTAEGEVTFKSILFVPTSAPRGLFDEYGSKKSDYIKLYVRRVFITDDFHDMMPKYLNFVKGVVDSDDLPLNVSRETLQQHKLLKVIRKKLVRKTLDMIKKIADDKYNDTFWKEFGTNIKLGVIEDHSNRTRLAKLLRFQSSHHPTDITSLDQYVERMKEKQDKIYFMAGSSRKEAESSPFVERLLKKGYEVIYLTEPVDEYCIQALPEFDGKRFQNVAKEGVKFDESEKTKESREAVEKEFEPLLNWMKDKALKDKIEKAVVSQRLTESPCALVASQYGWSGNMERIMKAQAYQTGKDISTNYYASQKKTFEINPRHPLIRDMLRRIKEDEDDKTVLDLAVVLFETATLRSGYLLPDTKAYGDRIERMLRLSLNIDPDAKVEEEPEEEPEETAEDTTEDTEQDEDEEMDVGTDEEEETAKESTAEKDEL

Row | binding result [3] | Molecule | fold decrease of binding affinity against apo conditions [1] [fold] | Kd [2] [µM] | fold decrease of binding affinity against apo conditions [2] [fold]
1 | – | Grp94 full-length (FL) wild type (from UniProt P14625 22-803) (natural protein) | 2 | 7.2 | 2
2 | – | Grp94 Δ72 (pre-N domain truncation, aa 73-803) (from UniProt P14625 73-803) (domain or fragment) | 6 | – | 4
3 | binds | DnaJB11 (BiP co-chaperone, J-protein) (natural protein) GRDFYKILGVPRSASIKDIKKAYRKLALQLHPDRNPDDPQAQEKFQDLGAAYEVLSDSEKRKQYDTYGEEGLKDGHQSSHGDIFSHFFGDFGFMFGGTPRQQDRNIPRGSDIIVDLEVTLEEVYAGNFVEVVRNKPVARQAPGKRKCNCRQEMRTTQLGPGRFQMTQEVVCDECPNVKLVNEERTLEVEIEPGVRDGMEYPFIGEGEPHVDGEPGDLRFRIKVVKHPIFERRGDDLYTNVTISLVESLVGFEMDITHLDGHKVHISRDKITRPGAKLWKKGEGLPNFDNNNIKGSLIITFDVDFPKEQLTEEAREGIKQLLKQGSVQKVYNGLQGY | – | – | –
